For test [1], the target named is T1, human FcγRIIb extracellular domain, His-tagged (human, UniProt P31994 43-217).
T1 construct: also called FcgRIIb (human)
T1 sequence: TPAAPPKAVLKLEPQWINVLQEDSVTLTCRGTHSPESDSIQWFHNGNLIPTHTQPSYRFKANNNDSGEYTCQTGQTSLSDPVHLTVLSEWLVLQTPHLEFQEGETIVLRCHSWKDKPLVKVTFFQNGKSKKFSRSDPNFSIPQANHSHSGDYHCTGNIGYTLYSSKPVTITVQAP
In words: SPR; KD of SG1 / KD of variant.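 Note: relative to parent M103205H795-SG1 carrying the SG1 human heavy chain constant region.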

Test [2] deals with T2, human FcγRIIIaV extracellular domain, His-tagged (human, UniProt P08637 17-208).
T2 construct: also called FcgRIIIaV
T2 sequence (P08637 17-208 F176V): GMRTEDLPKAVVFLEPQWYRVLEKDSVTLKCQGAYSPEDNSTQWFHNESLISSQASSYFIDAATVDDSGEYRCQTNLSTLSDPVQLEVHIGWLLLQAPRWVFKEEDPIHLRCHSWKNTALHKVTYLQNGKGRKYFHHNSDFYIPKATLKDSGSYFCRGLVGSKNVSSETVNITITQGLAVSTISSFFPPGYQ
In words: SPR; KD of SG1 / KD of variant.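 Note: relative to parent M103205H795-SG1 carrying the SG1 human heavy chain constant region.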

Test [3] concerns the target T3, human FcγRIIaH extracellular domain, His-tagged (human, UniProt P12318 34-217).
T3 construct: also called human FcγRIIa (type H); FcgRIIaH
T3 sequence: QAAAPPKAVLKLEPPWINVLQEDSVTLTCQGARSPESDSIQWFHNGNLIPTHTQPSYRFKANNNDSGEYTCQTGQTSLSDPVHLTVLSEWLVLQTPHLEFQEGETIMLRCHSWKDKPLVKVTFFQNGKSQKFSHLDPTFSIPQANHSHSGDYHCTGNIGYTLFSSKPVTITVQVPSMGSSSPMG
Briefly: SPR; KD of SG1 / KD of variant.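 Note: relative to parent M103205H795-SG1 carrying the SG1 human heavy chain constant region.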 For orientation: SPR reads the build-up and loss of mass on a sensor chip optically.

Test [4] deals with T4, cynomolgus monkey FcγRIIIaS extracellular domain, His-tagged (cynomolgus monkey, UniProt Q8SPW2 21-206 at identity 1.00)).
T4 construct: also called cyno FcγRIIIaS; cynoFcγRIIIaS
T4 chain: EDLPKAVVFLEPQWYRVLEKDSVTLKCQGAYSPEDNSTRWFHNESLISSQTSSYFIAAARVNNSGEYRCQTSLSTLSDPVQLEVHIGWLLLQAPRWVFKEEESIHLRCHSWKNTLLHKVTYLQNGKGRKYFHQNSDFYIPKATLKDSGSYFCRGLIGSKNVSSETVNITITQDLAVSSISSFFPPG
In words: SPR; KD of SG1 / KD of variant.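 Note: relative to parent M103205H795-SG1 carrying the SG1 human heavy chain constant region.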

Test [5] has as its target T5, cynomolgus monkey FcγRIIa1 extracellular domain, His-tagged (cynomolgus monkey).
T5 construct: also called cyno FcγRIIa1; cynoFcgRIIa1
T5 chain: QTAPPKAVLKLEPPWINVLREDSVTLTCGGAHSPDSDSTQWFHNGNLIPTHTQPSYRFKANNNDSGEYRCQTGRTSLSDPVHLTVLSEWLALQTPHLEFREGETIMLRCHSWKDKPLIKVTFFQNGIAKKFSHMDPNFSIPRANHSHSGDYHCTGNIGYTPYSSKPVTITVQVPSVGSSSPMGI
In words: SPR; KD of SG1 / KD of variant.

Test [6] addresses T6, cynomolgus monkey FcγRIIa3 extracellular domain, His-tagged (cynomolgus monkey).
T6 construct: also called cyno FcγRIIa3; cynoFcgRIIa3
T6 chain: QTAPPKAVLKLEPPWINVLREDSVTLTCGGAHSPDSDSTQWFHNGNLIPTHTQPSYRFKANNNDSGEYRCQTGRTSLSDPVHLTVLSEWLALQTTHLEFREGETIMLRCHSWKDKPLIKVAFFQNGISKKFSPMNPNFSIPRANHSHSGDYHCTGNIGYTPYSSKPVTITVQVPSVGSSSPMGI
Briefly: SPR; KD of SG1 / KD of variant.

In test [7] the target is T7, cynomolgus monkey FcγRIIb extracellular domain, His-tagged (cynomolgus monkey).
T7 construct: also called cyno FcγRIIb; cynoFcγRIIb
T7 chain: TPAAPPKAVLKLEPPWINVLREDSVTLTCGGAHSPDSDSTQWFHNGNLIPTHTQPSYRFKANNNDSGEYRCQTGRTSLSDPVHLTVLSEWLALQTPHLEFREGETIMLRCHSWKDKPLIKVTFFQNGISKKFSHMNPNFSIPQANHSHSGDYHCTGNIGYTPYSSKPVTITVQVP
In words: SPR; KD of SG1 / KD of variant.

Test [8] has as its target T8, cynomolgus monkey FcγRIIa2 extracellular domain, His-tagged (cynomolgus monkey).
T8 construct: also called cyno FcγRIIa2; cynoFcgRIIa2
T8 chain: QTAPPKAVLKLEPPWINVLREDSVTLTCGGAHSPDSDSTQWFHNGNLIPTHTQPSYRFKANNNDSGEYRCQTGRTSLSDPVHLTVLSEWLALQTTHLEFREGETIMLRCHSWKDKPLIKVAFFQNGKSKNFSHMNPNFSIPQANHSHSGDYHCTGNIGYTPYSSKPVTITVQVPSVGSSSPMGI
Briefly: SPR; KD of SG1 / KD of variant.

The target in test [9] is T1, human FcγRIIb extracellular domain, …. In words: SPR, antibody captured, FcgR analyte. The method, then:
(§1) The kinetic analysis of interactions between these antibodies and FcγR was carried out using BIACORE® T200 or BIACORE® 4000 (GE Healthcare). HBS-EP+ (GE Healthcare) was used as the running buffer, and the measurement temperature was set to 25° C. A chip produced by immobilizing Protein A. Protein A/G or mouse anti-human IgG kappa light chain (BD Biosciences) onto a Series S Sensor Chip CM4 or CM5 (GE Healthcare) by the amine-coupling method was used. […] After the measurement, the antibody captured on the chip was washed off by allowing reaction with 10 mM glycine-HCl, pH1.5 and 25 mM NaOH so that the chip was regenerated and used repeatedly. The sensorgrams obtained as measurement results were analyzed by the 1:1 Langmuir binding model using the BIACORE® Evaluation Software to calculate the binding rate constant ka (L/mol/s) and dissociation rate constant kd (l/s), and the dissociation constant KD (mol/L) was calculated from these values. […] Regarding such interactions, KD values were calculated using the following 1:1 binding model described in BIACORE® T100 Software Handbook BR1006-48 Edition AE.
(§2) The behavior of interacting molecules according to the 1:1 binding model on BIACORE® can be described by Equation 1: Req=C·R max/(KD+C)+RI, wherein, Req is a plot of steady-state binding levels to analyte concentration. C is concentration, RI is bulk refractive index contribution in the sample, and Rmax is analyte binding capacity of the surface. When this equation is rearranged, KD can be expressed as Equation 2: KD=C·Rmax/(Req−RI)−C. KD can be calculated by substituting the values of Rmax, RI, and C into Equation 1 or Equation 2. From the current measurement conditions, RI=0, C=2 μmol/L can be used.

Test [10] concerns the target T2, human FcγRIIIaV extracellular domain, …. In words: SPR, antibody captured, FcgR analyte. Here is the method:
as §1, §2

Test [11] deals with T3, human FcγRIIaH extracellular domain, …. In words: SPR, antibody captured, FcgR analyte. Here is the method:
as §1, §2

Test [12] addresses T4, cynomolgus monkey FcγRIIIaS …. Briefly: SPR, antibody captured, FcgR analyte. Here is the method:
as §1, §2

For test [13], the target named is T5, cynomolgus monkey FcγRIIa1 …. Briefly: SPR, antibody captured, FcgR analyte. The method, then:
as §1, §2

In test [14] the target is T6, cynomolgus monkey FcγRIIa3 …. In words: SPR, antibody captured, FcgR analyte. The method, then:
as §1, §2

Test [15] concerns the target T7, cynomolgus monkey FcγRIIb extracellular …. In words: SPR, antibody captured, FcgR analyte. Here is the method:
as §1, §2

The target in test [16] is T8, cynomolgus monkey FcγRIIa2 …. Briefly: SPR, antibody captured, FcgR analyte. Here is the method:
as §1, §2

For test [17], the target named is T9, human FcγRIIaR extracellular domain, His-tagged (human, UniProt P12318 34-217).
T9 construct: also called human FcγRIIa (type R); FcgRIIaR
T9 chain: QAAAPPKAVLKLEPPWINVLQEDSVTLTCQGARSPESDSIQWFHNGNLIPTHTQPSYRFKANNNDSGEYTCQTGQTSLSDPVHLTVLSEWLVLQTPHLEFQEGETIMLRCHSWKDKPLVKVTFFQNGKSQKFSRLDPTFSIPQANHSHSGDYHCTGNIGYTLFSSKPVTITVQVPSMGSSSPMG
In words: SPR, antibody captured, FcgR analyte. Here is the method: as §1, §2

B1: M103205H795-MY012/M103202L889-SK1 (antibody, human IgG1, kappa)
heavy: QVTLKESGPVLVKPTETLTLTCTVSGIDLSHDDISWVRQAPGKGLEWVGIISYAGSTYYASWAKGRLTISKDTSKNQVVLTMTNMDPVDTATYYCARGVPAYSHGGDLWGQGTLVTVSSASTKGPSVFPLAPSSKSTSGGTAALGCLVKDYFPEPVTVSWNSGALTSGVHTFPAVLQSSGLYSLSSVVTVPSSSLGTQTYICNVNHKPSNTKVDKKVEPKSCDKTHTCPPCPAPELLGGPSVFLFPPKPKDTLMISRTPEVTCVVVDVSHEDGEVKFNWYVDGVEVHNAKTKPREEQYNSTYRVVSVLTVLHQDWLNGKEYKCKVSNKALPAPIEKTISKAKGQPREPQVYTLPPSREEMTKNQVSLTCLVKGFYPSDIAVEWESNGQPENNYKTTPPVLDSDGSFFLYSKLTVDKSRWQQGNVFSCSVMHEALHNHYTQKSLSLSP
light: DIVMTQSPATLSLSPGERATLSCTSSQSVYHANWLSWFQQKPGQPPKLLIYWASTLAYGVPSRFSGSGSGTDFTLTISSLQPEDAATYYCAGGYGGGRYAFGQGTKVEIKRTVAAPSVFIFPPSDEQLKSGTASVVCLLNNFYPREAKVQWKVDNALQSGNSQESVTEQDSKDSTYSLSSTLTLSKADYEKHKVYACEVTHQGLSSPVTKSFNRGEC
notes: Put into M103205H795-SG1
In the case of B1, the “KD fold (SG1 = 1)” value turned out to be 5.3 fold in test [1]; 1.69 fold in test [2]; 1.6 fold in test [3]; 1.8 fold in test [4]; 1.5 fold in test [5]; 2.2 fold in [6]. Besides, the “KD fold (SG1 = 1)” value was 1.6 fold in test [7] and 2.2 fold in [8]. Moreover, the Kd (as a rule, a measure of binding affinity in units of concentration) was 900 nM in test [9]; 480 nM in test [10]; 440 nM in test [11]; 200 nM in [12]; 2100 nM in test [13]; 7900 nM in test [14]. For the same molecule, the Kd amounted to 1100 nM in test [15], 2300 nM in test [16] and 230 nM in test [17].

B2: M103205H795-MY067/M103202L889-SK1 (antibody, human IgG1, kappa)
heavy: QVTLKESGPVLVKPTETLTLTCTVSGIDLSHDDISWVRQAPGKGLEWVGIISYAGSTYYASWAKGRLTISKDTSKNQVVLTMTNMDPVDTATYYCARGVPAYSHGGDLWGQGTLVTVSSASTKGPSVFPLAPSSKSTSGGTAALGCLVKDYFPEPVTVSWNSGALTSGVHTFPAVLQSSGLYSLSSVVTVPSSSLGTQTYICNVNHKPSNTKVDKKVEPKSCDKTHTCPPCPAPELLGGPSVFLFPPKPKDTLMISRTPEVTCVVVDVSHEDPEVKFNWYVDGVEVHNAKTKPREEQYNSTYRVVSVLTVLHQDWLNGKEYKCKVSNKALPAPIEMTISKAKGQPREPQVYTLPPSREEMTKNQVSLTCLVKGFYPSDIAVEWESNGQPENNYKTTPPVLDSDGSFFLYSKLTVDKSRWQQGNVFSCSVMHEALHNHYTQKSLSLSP
light: DIVMTQSPATLSLSPGERATLSCTSSQSVYHANWLSWFQQKPGQPPKLLIYWASTLAYGVPSRFSGSGSGTDFTLTISSLQPEDAATYYCAGGYGGGRYAFGQGTKVEIKRTVAAPSVFIFPPSDEQLKSGTASVVCLLNNFYPREAKVQWKVDNALQSGNSQESVTEQDSKDSTYSLSSTLTLSKADYEKHKVYACEVTHQGLSSPVTKSFNRGEC
notes: Substitution put into M103205H795-SG1
With B2, the Kd in test [9] was 2800 nM; in test [10] it was 200 nM; in test [11] it was 530 nM; in test [12] it was 100 nM; in test [13] it was 2100 nM; in test [14], 6700 nM. Besides, the dissociation constant (Kd) in [15] came to 1100 nM; in test [16] it was 2300 nM; in test [17], 760 nM.

B3: M103205H795-MY066/M103202L889-SK1 (antibody, human IgG1, kappa)
heavy: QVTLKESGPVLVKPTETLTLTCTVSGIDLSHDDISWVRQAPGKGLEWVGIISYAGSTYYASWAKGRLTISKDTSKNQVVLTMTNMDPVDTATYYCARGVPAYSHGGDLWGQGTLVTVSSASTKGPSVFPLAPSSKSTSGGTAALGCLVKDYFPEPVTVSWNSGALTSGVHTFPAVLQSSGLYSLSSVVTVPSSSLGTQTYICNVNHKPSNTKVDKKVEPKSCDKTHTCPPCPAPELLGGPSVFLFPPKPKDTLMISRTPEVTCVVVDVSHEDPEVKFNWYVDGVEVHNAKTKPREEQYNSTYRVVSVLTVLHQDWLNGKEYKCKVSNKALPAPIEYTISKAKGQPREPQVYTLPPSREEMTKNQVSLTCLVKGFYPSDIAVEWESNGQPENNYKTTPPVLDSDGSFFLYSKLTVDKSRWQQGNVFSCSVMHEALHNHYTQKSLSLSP
light: DIVMTQSPATLSLSPGERATLSCTSSQSVYHANWLSWFQQKPGQPPKLLIYWASTLAYGVPSRFSGSGSGTDFTLTISSLQPEDAATYYCAGGYGGGRYAFGQGTKVEIKRTVAAPSVFIFPPSDEQLKSGTASVVCLLNNFYPREAKVQWKVDNALQSGNSQESVTEQDSKDSTYSLSSTLTLSKADYEKHKVYACEVTHQGLSSPVTKSFNRGEC
notes: as for B2
In the case of B3, the Kd in test [9] is 2800 nM; in [10], 290 nM; in [11], 640 nM; in test [12], 160 nM; in [13] it was 2100 nM; in test [14], 5700 nM. Besides, the dissociation constant Kd amounted to 1400 nM in test [15], 2800 nM in test [16] and 970 nM in test [17].

B4: M103205H795-MY061/M103202L889-SK1 (antibody, human IgG1, kappa)
heavy: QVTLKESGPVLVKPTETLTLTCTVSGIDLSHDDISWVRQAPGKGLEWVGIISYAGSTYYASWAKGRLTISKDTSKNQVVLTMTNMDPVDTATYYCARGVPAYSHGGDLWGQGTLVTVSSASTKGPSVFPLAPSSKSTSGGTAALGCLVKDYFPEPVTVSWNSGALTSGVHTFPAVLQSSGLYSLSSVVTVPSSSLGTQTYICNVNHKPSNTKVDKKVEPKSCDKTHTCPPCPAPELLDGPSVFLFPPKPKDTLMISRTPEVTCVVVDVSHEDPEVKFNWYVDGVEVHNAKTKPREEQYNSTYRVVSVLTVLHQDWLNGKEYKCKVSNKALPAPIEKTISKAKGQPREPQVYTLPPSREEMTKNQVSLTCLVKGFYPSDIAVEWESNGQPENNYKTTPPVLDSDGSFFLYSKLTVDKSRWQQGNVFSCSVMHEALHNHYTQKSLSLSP
light: DIVMTQSPATLSLSPGERATLSCTSSQSVYHANWLSWFQQKPGQPPKLLIYWASTLAYGVPSRFSGSGSGTDFTLTISSLQPEDAATYYCAGGYGGGRYAFGQGTKVEIKRTVAAPSVFIFPPSDEQLKSGTASVVCLLNNFYPREAKVQWKVDNALQSGNSQESVTEQDSKDSTYSLSSTLTLSKADYEKHKVYACEVTHQGLSSPVTKSFNRGEC
notes: as for B2
Take B4: the “KD fold (SG1 = 1)” value in test [1] is 1.8 fold; in test [2] it was 0.27 fold; in test [3], 0.5 fold; in test [4] it was 0.11 fold; in [5] it was 0.5 fold; in [6], 0.5 fold. The “KD fold (SG1 = 1)” value in [7] turned out to be 0.6 fold; in test [8], 0.8 fold. In addition, the Kd in [9] is 2500 nM; in test [10] it was 3000 nM; in test [11], 1400 nM; in test [12], 3400 nM; in test [13] it was 6500 nM; in test [14], 18000 nM. Further, the figures for the Kd in test [15] and in [17] were 4200 nM and 1300 nM, respectively.

B5: M103205H795-MY015/M103202L889-SK1 (antibody, human IgG1, kappa)
heavy: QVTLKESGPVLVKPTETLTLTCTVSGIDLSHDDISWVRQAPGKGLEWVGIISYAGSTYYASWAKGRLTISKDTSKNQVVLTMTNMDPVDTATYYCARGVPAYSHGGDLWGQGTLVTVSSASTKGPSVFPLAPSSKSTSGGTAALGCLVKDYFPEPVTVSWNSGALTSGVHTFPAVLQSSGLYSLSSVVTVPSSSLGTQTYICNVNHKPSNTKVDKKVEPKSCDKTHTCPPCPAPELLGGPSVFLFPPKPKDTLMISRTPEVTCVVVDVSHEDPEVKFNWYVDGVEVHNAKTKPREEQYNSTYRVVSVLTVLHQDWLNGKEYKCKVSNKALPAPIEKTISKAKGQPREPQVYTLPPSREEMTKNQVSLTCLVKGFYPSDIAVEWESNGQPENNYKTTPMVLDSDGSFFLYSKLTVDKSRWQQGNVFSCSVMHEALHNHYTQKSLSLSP
light: DIVMTQSPATLSLSPGERATLSCTSSQSVYHANWLSWFQQKPGQPPKLLIYWASTLAYGVPSRFSGSGSGTDFTLTISSLQPEDAATYYCAGGYGGGRYAFGQGTKVEIKRTVAAPSVFIFPPSDEQLKSGTASVVCLLNNFYPREAKVQWKVDNALQSGNSQESVTEQDSKDSTYSLSSTLTLSKADYEKHKVYACEVTHQGLSSPVTKSFNRGEC
notes: as for B2
For B5, the Kd in test [9] is 1600 nM; in test [10], 240 nM; in [11] it was 330 nM; in test [12] it was 100 nM; in test [13], 1300 nM; in test [14], 4700 nM. Besides, the values for the Kd in test [16] and in [17] were 1500 nM and 320 nM, respectively.

The record behind these values is US20200317768A1 (published 2020).
